The labels stand for the following.
B1: T-CD123-WT (other)
chain 1: DFVMTQSPDSLAVSLGERVTMSCKSSQSLLNSGNQKNYLTWYQQKPGQPPKLLIYWASTRESGVPDRFSGSGSGTDFTLTISSLQAEDVAVYYCQNDYSYPYTFGQGTKLEIKGGGSGGGGEVQLVESGGGLVQPGGSLRLSCAASGFTFSTYAMNWVRQAPGKGLEWVGRIRSKYNNYATYYADSVKDRFTISRDDSKNSLYLQMNSLKTEDTAVYYCVRHGNFGNSYVSWFAYWGQGTLVTVSSGGCGGGEVAALEKEVAALEKEVAALEKEVAALEKGGGDKTHTCPPCPAPEAAGGPSVFLFPPKPKDTLMISRTPEVTCVVVDVSHEDPEVKFNWYVDGVEVHNAKTKPREEQYNSTYRVVSVLTVLHQDWLNGKEYKCKVSNKALPAPIEKTISKAKGQPREPQVYTLPPSREEMTKNQVSLWCLVKGFYPSDIAVEWESNGQPENNYKTTPPVLDSDGSFFLYSKLTVDKSRWQQGNVFSCSVMHEALHNHYTQKSLSLSPGK
chain 2: QAVVTQEPSLTVSPGGTVTLTCRSSTGAVTTSNYANWVQQKPGQAPRGLIGGTNKRAPWTPARFSGSLLGGKAALTITGAQAEDEADYYCALWYSNLWVFGGGTKLTVLGGGGSGGGGEVQLVQSGAELKKPGASVKVSCKASGYTFTDYYMKWVRQAPGQGLEWIGDIIPSNGATFYNQKFKGRVTITVDKSTSTAYMELSSLRSEDTAVYYCARSHLLRASWFAYWGQGTLVTVSSGGCGGGKVAALKEKVAALKEKVAALKEKVAALKE
heavy: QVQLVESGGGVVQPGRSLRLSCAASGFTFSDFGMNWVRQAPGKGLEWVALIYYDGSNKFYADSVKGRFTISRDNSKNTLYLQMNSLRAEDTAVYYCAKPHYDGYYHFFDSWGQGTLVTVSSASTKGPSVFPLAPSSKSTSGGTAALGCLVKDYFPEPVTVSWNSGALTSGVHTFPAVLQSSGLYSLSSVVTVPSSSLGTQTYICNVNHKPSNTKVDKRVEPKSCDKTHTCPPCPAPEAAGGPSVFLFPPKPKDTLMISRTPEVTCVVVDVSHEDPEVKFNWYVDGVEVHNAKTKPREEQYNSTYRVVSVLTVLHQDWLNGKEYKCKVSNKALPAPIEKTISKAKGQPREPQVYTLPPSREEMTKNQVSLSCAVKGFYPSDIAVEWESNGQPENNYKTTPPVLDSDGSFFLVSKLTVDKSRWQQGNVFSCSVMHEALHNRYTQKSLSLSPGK
light: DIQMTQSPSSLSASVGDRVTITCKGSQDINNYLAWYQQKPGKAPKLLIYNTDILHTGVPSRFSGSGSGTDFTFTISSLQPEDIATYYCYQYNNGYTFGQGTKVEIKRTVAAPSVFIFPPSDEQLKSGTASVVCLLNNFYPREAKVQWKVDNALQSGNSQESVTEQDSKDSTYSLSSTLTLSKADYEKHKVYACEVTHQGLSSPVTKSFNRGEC
notes: Four-chain trivalent CD123 x CD3 x CD8 molecule with Fc; also called CD123 mAb 1 x CD3 mAb 1 x TRX2 TRIVALENT-type molecule
B2: T-CD123-M1 (other)
chain 1: B1 chain 1 with S231T
chain 2: B1 chain 2
heavy: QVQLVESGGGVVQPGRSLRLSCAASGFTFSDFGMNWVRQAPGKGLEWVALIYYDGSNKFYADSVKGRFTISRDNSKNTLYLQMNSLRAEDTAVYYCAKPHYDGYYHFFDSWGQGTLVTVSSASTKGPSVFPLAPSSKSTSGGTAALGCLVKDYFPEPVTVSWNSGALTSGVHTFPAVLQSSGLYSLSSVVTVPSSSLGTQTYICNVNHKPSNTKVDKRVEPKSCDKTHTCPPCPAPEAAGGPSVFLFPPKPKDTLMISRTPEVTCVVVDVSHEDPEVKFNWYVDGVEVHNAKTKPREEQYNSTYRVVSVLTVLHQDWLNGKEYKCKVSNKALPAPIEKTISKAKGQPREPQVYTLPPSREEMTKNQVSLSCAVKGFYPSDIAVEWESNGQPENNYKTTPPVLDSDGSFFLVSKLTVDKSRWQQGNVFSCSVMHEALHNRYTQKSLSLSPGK
light: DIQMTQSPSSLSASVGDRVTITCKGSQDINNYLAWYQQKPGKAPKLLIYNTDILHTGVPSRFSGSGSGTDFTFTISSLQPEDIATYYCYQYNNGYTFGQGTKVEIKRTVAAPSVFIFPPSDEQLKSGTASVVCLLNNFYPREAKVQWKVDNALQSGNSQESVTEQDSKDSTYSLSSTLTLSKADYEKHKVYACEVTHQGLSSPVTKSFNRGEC
notes: Four-chain trivalent CD123 x CD3 x CD8 molecule with Fc; also called CD123 mAb 1 x CD3 mAb 1 M1 x TRX2 TRIVALENT-type molecule
B3: 5T4-WT (bispecific antibody)
chain 1: DIQMTQSPSSLSASVGDRVTITCRASQGISNYLAWFQQKPGKAPKSLIYRANRLQSGVPSRFSGSGSGTDFTLTISSLQPEDVATYYCLQYDDFPWTFGQGTKLEIKGGGSGGGGEVQLVESGGGLVQPGGSLRLSCAASGFTFSTYAMNWVRQAPGKGLEWVGRIRSKYNNYATYYADSVKGRFTISRDDSKNSLYLQMNSLKTEDTAVYYCVRHGNFGNSYVSWFAYWGQGTLVTVSSGGCGGGEVAALEKEVAALEKEVAALEKEVAALEKGGGDKTHTCPPCPAPEAAGGPSVFLFPPKPKDTLMISRTPEVTCVVVDVSHEDPEVKFNWYVDGVEVHNAKTKPREEQYNSTYRVVSVLTVLHQDWLNGKEYKCKVSNKALPAPIEKTISKAKGQPREPQVYTLPPSREEMTKNQVSLWCLVKGFYPSDIAVEWESNGQPENNYKTTPPVLDSDGSFFLYSKLTVDKSRWQQGNVFSCSVMHEALHNHYTQKSLSLSPGK
chain 2: QAVVTQEPSLTVSPGGTVTLTCRSSTGAVTTSNYANWVQQKPGQAPRGLIGGTNKRAPWTPARFSGSLLGGKAALTITGAQAEDEADYYCALWYSNLWVFGGGTKLTVLGGGGSGGGGQVQLVQSGAEVKKPGASVKVSCKASGYTFTSFWMHWVRQAPGQGLEWMGRIDPNRGGTEYNEKAKSRVTMTADKSTSTAYMELSSLRSEDTAVYYCAGGNPYYPMDYWGQGTTVTVSSGGCGGGKVAALKEKVAALKEKVAALKEKVAALKE
chain 3: not shown
notes: Three-chain diabody with Fc; Kabat position 65 of the CD3 VH is G in this construct; also called 5T4 x CD3 mAb 1 DART-B-type diabody
B4: 5T4-M18 (bispecific antibody)
chain 1: B3 chain 1 with A148G, G183D
chain 2: B3 chain 2
chain 3: not shown
notes: Three-chain diabody with Fc; also called 5T4 x CD3 mAb 1 M18 DART-B-type diabody
B5: 5T4-M1 (bispecific antibody)
chain 1: B3 chain 1 with G183D, S225T
chain 2: B3 chain 2
chain 3: not shown
notes: Three-chain diabody with Fc; also called 5T4 x CD3 mAb 1 M1 DART-B-type diabody
B6: 5T4-M2 (bispecific antibody)
chain 1: B3 chain 1 with G183D, G217K, S225T
chain 2: B3 chain 2
chain 3: not shown
notes: Three-chain diabody with Fc; also called 5T4 x CD3 mAb 1 M2 DART-B-type diabody

Numbering of substitutions follows the chain as printed.

Sequence of soluble human CD3 (P07766 23-126): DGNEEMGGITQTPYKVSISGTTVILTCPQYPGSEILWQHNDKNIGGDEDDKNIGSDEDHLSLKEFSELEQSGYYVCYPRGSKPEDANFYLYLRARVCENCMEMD
T1 sequence (P26951 19-378 limits assumed): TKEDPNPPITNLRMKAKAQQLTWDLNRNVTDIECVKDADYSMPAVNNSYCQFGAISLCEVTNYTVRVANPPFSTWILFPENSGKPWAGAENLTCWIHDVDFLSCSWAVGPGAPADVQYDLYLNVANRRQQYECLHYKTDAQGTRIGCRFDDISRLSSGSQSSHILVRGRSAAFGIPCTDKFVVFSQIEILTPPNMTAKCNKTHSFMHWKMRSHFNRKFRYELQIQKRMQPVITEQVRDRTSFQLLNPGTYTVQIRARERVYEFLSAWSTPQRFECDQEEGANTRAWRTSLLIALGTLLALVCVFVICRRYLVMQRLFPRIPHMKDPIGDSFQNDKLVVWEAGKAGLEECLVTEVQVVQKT

The first assay has as its target T1, CD123 on MOLM-13 cells (UniProt P26951 19-378, limits assumed).
T1 construct: whole, on cells; also called CD123-expressing MOLM-13 cells
In words: flow cytometry on CD123-expressing MOLM-13 cells, MFI (geo mean) against concentration (nM). (In flow cytometry, cells or beads pass a laser one at a time.)
On to B1, for which the binding result is given as “binds”.

On to B2, for which the binding result was “binds”.

A further assay concerns the target soluble human CD3 (human, UniProt P07766 23-126). As to the kind of experiment: SPR (BIAcore), diabody over immobilized human CD3. As to the method: The ability of the CD123-binding diabodies: CD123-WT, CD123-M1, CD123-M2 and CD123-M18 to bind to human CD3 and CD123 was also evaluated using BIAcore®. […] Table 14 presents the calculated kₐ, kd and KD from these studies.
The ability of the 5T4-binding diabodies: 5T4-WT, 5T4-M1, 5T4-M2 and 5T4-M18 to bind to CD3 was also evaluated using BIAcore®, as described above. Table 15A presents the calculated kₐ, kd and KD.
Take B3: the affinity, expressed as Kd, was 36 nM; the koff – broadly, the first-order rate constant of dissociation – was found to be 0.0054 s⁻¹; the kon (commonly the second-order rate constant of association) is 150000 M⁻¹ s⁻¹.

Take B4: the Kd (in general, the free concentration of one partner at which half of the binding sites on the other are occupied at equilibrium, for simple one-to-one binding) is 453 nM; the koff came out at 0.034 s⁻¹; the kon was 75000 M⁻¹ s⁻¹.

For B5, binding was put at a Kd of 326 nM, the koff was 0.031 s⁻¹ and the kon amounted to 95000 M⁻¹ s⁻¹.

Take B6: binding was put at a Kd of 118 nM, the koff worked out at 0.041 s⁻¹ and the kon worked out at 350000 M⁻¹ s⁻¹.

A further assay deals with T2, 5T4 on A498 cells (UniProt Q13641 32-420, limits assumed).
T2 construct: whole, on cells; also called 5T4-expressing A498 cells; A-498 kidney carcinoma (5T4)
T2 sequence (looked up): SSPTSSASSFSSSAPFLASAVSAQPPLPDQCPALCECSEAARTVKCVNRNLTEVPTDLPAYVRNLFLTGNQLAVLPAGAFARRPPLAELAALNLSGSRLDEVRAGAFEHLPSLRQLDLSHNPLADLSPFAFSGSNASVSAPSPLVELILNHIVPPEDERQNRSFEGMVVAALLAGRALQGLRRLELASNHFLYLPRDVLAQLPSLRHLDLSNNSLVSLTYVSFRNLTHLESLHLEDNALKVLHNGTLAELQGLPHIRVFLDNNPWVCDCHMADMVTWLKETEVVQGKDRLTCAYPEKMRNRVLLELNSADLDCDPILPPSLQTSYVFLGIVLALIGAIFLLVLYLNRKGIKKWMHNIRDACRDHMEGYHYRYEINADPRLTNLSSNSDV
As to the kind of experiment: Flow cytometry on A498 cells; detection with biotinylated anti-E/K-coil antibody and streptavidin-PE. As to the method:
FIG. 9A-9B show the ability of DART-B-type diabodies to bind to Disease Antigens. […] Binding was detected using biotinylated antibody specific for the diabodies' E/K coils and streptavidin-phycoerythrin (PE).
The ability of such diabodies to bind to their respective Disease Antigen (i.e., CD123 or 5T4) on the surface of MOLM-13 leukemia (CD123) or A-498 kidney carcinoma (5T4) target cancer cells was assessed using FACS. Briefly, cells were incubated with the diabody molecules (in FACS buffer containing 10% human AB serum) in microtiter plates. The cells were washed and incubated with biotin-conjugated mouse anti-EK-coil antibody that recognizes the E-coil/K-coil (EK) Heterodimer-Promoting Domain of the diabodies mixed with streptavidin-phycoerythrin.
In the case of B3, the EC50 (read off the curve) (as a rule, the concentration that produces a half-maximal response) was roughly 1 nM.

Turning to B4, the “EC50 (read off the curve)” value was roughly 1 nM.

As for B5, the “EC50 (read off the curve)” value is roughly 1 nM.

For B6, the “EC50 (read off the curve)” value is roughly 1 nM.
